Among the data in the supplement of paper PMC10567573 are protein stability index values, retold here.

± gives the standard deviation.

This data set in a line: protein stability index of a GFP-peptide fusion (GPS, HEK-293T) (PSI 1-6); higher = more stable.
[1] abbreviates: treatment: DMSO, c terminus: a fixed tail appended.
Setting [2] is: treatment: MLN4924 1 uM, 8 h, c terminus: a fixed tail appended.
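Further: 24-mer peptide tiles fused after GFP, lentivirally expressed, FACS-sorted into six equal bins by GFP/DsRed ratio, decoded by Illumina sequencing, PSI is the read-weighted mean bin number.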

Consider VGVATARAPLHSVGYTALVGSDAE [SPSB4], for which the protein stability index came to 4.35 ± 0.19 under setting [1] and 4.38 ± 0.3 under setting [2]. On the same counts, the results for VHASGWNKILVPLVLLRQMLLELT [BCL2L13] are 2.2 ± 0.3 and 2.3 ± 0.24. On the same counts, the results for VIATATVYFKRFYARYSLKSIDPV [CCNC] are 2.8 ± 0.74 and 2.8 ± 0.64.

For the sequence VIGFAKMIPGFRDLTSEDQIVLLK [VDR], the protein stability index was 2.36 ± 0.51 under setting [1] and 2.42 ± 0.46 under setting [2]. On the same counts, the results for VINPMLNPIIYSFRNPDVQSAIWR [OR3A1] are 2.06 ± 0.51 and 2.24 ± 0.19. For VISPMYQLHKPLAEGTPRSNHSAQ [IKZF1], in that order: 3.76 ± 0.32 and 4.06 ± 0.31.

As to VITKHNDDEQYAWESSAGGSFTVR [HSP90AB1], the protein stability index under setting [1] worked out at 3.98 ± 0.2 and the protein stability index under setting [2] turned out to be 4.16 ± 0.21.

For the sequence VKSKAKKTVDKHSDEYKIRRERNN [CEBPB], the protein stability index under setting [1] worked out at 4.78 ± 0.39 and the protein stability index under setting [2] came out at 4.79 ± 0.2. On the same counts, the results for VMFKEPIEILPNVCYTACATLKGP [BTBD1] are 2.12 ± 0.22 and 2.14 ± 0.26. For VPEKRDSGMTEVERTYSANCSDFL [SPATS1], the protein stability index is, setting by setting: under setting [1], 4.7 ± 0.17; under setting [2], 4.89 ± 0.14. On the same counts, the results for VPGTQVGQGGKLWDPSVQSCKEGL [ZNF263] are 4.12 ± 0.12 and 4.26 ± 0.18. For VPTPLTNVQILLPVGEPVTNVRLQ [FCHO1], in that order: 3.35 ± 0.34 and 3.36 ± 0.33. On the same counts, the results for VPWESDIWDINNQICTVKDIKAEP [ATF6] are 4.02 ± 0.24 and 3.9 ± 0.25. Consider VQLHNGTKYKKFPHWLDKWMLTRK [STEAP1], for which the protein stability index runs as follows: under setting [1], 2.36 ± 0.044; under setting [2], 2.19 ± 0.096. Turning to VQLIQDTRIHILPSMNPDGYEVAA [CPN1], the protein stability index came out at 2.55 ± 0.23 under setting [1] and 2.57 ± 0.33 under setting [2]. On the same counts, the results for VQLIWVVSQLYPESIVPIPSSNEE [INTS4] are 3.07 ± 0.45 and 2.81 ± 1.1.

For the sequence VQLSQIQGLIGSVEEQLAQLRCEM [KRT17], the protein stability index under setting [1] was found to be 3.04 ± 0.36 and the protein stability index under setting [2] came out at 2.79 ± 0.32. For VRKSRDKAKRRNQEMQQKLVELSA [CEBPD], in that order: 3.78 ± 0.34 and 3.72 ± 0.43.

With VRKWRVKSALGAMGQWQLEVGDPA [DPCD], the protein stability index came out at 2.46 ± 0.26 under setting [1] and 2.57 ± 0.21 under setting [2].

On to VSASGKEMDWAQMACHRCLVYLGD [SMG5], for which the protein stability index came to 2.1 ± 0.36 under setting [1] and 2.21 ± 0.52 under setting [2]. VSEDFNKMNFIKTYPAHQNRVSAI [WDFY1]: the protein stability index by setting is: under setting [1], 2.9 ± 0.21; under setting [2], 3.03 ± 0.46. VSRGPGVNVGTTALWKHLKSMHRE [ZBED2]: the protein stability index is, setting by setting: under setting [1], 3.22 ± 0.14; under setting [2], 3.3 ± 0.32. As for VSSEDSFVCQCFEGYILREDGKTC [MATN2], the protein stability index runs as follows: under setting [1], 3.04 ± 0.26; under setting [2], 3.08 ± 0.57. As to VTGLNPKTKYILLMDIVPADDHRY [TBX5], the protein stability index under setting [1] is 2.63 ± 0.44 and the protein stability index under setting [2] was found to be 1.95 ± 0.53. On the same counts, the results for VTLARQAGEVVCEAIKNEMNVMLK [IMPA1] are 2.44 ± 0.4 and 2.44 ± 0.45. With VTNHNIRLFEDVRSWMFRRGPLNS [TRIM43], the protein stability index was 2.56 ± 0.45 under setting [1] and 2.49 ± 0.18 under setting [2].

Regarding VTSQERHCLQQRRKSVPGPGNRTC [ADAMTSL2], the protein stability index stood at 4.92 ± 0.42 under setting [1] and 4.824 ± 0.006 under setting [2].

For the sequence VTVSDASWVSELLWSLFVPFTVYQ [AUP1], the protein stability index reads like this: under setting [1], 2.87 ± 0.55; under setting [2], 3.14 ± 0.47. For VVFHCEFSSERGPRMCRYVRERDR [CDC25A], in that order: 2.41 ± 0.56 and 2.4 ± 0.3.

As to VVHEDFREDILSCYDVYSPDKEEQ [PKD2L1], the protein stability index amounted to 4.7 ± 0.33 under setting [1] and 4.69 ± 0.082 under setting [2]. On the same counts, the results for VVRGGEVVHRSDEQQHYFNTPFQL [PPTC7] are 3.26 ± 0.47 and 3.43 ± 0.24. For VVTAEAVAVLKGEQEKEAQHKDQT [MAP2], in that order: 5.49 ± 0.12 and 5.28 ± 0.21.

VVVCQCGLSIPSHSSELTEQKLRA [RPAIN]: the protein stability index reads like this: under setting [1], 2.1 ± 0.43; under setting [2], 2.36 ± 0.38. For VVYSCVEGKMYTARKGKGAFCNGQ [IMPA1], in that order: 2.33 ± 0.27 and 2.36 ± 0.13. On the same counts, the results for VWAHNLIAIARLRGSDLKVLEVTE [FBXO33] are 2.63 ± 0.85 and 2.95 ± 1.1.

Take VYPKEFHLNRGNHEDHMVNLRYGF [PPEF2]: the protein stability index runs as follows: under setting [1], 2.69 ± 0.29; under setting [2], 2.71 ± 0.36.

As for WDLVSASVVCRELGFGSAKEAVTG [LOXL2], the protein stability index stood at 2.58 ± 0.31 under setting [1] and 2.61 ± 0.089 under setting [2]. For WGFVHPRLLSVPELCHHVAEVWVS [RETREG3], in that order: 3.04 ± 0.64 and 2.63 ± 0.57. As for WKESKGKDREYTDIIRKQVLGTKV [CDC34], the protein stability index came to 3.66 ± 0.17 under setting [1] and 3.7 ± 0.4 under setting [2]. On the same counts, the results for WKKLVLVDRNTRPGPQDPEESASR [ELOA2] are 4.28 ± 0.16 and 4.46 ± 0.11. On the same counts, the results for WLAVDGLVSPSNNSKEDAFSGTDW [ATF4] are 3.76 ± 0.19 and 3.76 ± 0.27. Consider WNMDKYTMIRKLEGHHHDVVACDF [WSB1], for which the protein stability index is 2.38 ± 0.19 under setting [1] and 2.58 ± 0.33 under setting [2]. For WRMLTYKALNTFIDDLFAFVIKMP [CLPTM1], in that order: 2.95 ± 0.4 and 2.96 ± 0.7.

With WSECSRTCGEGYQFRVVRCWKMLS [ADAMTSL2], the protein stability index was determined as 3.1 ± 1.8 under setting [1] and 2.19 ± 0.34 under setting [2]. In turn, WTQATGLGCALLAAHAVVLCALPV [SOAT2] came in with a protein stability index under setting [1] of 3.18 ± 0.35 and a protein stability index under setting [2] of 2.97 ± 0.095. On the same counts, the results for WVDITDVPPGDYLFQVVINPNFEV [LOXL2] are 2.94 ± 0.71 and 2.91 ± 0.98. On the same counts, the results for YCDLPQLFQLSCSSTQLNELLLFA [OR3A1] are 2.61 ± 0.36 and 2.64 ± 0.57. On the same counts, the results for YDPFRDAVTLRCGHNFCRGCVSRC [TRIM35] are 2.69 ± 0.46 and 2.74 ± 0.4.

Regarding YFDPLRNEYFFDRNRPSFDAILYY [KCNA3], the protein stability index by setting is: under setting [1], 2.62 ± 0.54; under setting [2], 2.44 ± 0.32. On the same counts, the results for YFTDLFDYLPLTALVDGQIFCLHG [PPP2CA] are 3.22 ± 0.39 and 2.91 ± 0.3.

On to YGCKVADIKKVNNFIREQDLYALK [LYSMD4], for which the protein stability index by setting is: under setting [1], 2.27 ± 0.22; under setting [2], 2.39 ± 0.21. As for YGLDSVKKKCLEWLLNNLMTHQNV [GMCL1], the protein stability index is 3.09 ± 0.26 under setting [1] and 2.73 ± 0.21 under setting [2]. For YILELDDGNGGQFREVYVGKETMC [TRIM9], in that order: 2.28 ± 0.11 and 2.29 ± 0.16. For YILLVGYPPFWDEDQHRLYQQIKA [CAMK2D], in that order: 2.46 ± 0.099 and 2.54 ± 0.67.

Sequence YKNIKRPPGDIMFLLVQRFGELMR [USP39] displayed a protein stability index under setting [1] of 2.29 ± 0.16 and a protein stability index under setting [2] of 2.14 ± 0.17. In the case of YLCFLLAVLLQLYVATEAILIALV [SLC22A15], the protein stability index reads like this: under setting [1], 2.64 ± 0.38; under setting [2], 2.51 ± 0.63.

In the case of YLCKRVPHTVLDRQLLCLIDYYES [CEP70], the protein stability index is, setting by setting: under setting [1], 2.1 ± 0.58; under setting [2], 2.21 ± 0.32. For YLKKNHEEEMNALRGQVGGEINVE [KRT17], in that order: 4.39 ± 0.23 and 4.75 ± 0.12. For YLLQWLKSDKALMMLFNDGTFQVN [PLK2], in that order: 2.73 ± 0.53 and 2.53 ± 0.51. For YLSPRDFLSGLAFRVFHCTQYVRH [TPH1], in that order: 2.31 ± 0.2 and 2.08 ± 0.17.

YNIATRRKALKNPSEEYGKILEVV [MLH1] yielded a protein stability index under setting [2] of 2.74 ± 0.48. As for YNIKLEGKVPMHKLFLEMLEAKV [ESRRG], the protein stability index (treatment: DMSO, c terminus: native) came to 2.83 ± 1.5 and the protein stability index (treatment: MLN4924 1 uM, 8 h, c terminus: native) stood at 2.43 ± 1.

YNYMMGIEFNPRIGKWFDFKLFFN [DHCR7] yielded a protein stability index under setting [1] of 2.52 ± 0.53 and a protein stability index under setting [2] of 2.23 ± 0.33. For YPHTRIQSLVSILRTTVHHAFPVV [CLCN6], in that order: 2.42 ± 0.57 and 2.14 ± 0.15.

Regarding YQNELHKFLIWDTAGQERFRALAP [RAB22A], the protein stability index under setting [1] was 2.29 ± 0.045 and the protein stability index under setting [2] was determined as 2.46 ± 0.37. For YQQLCIYWTKYYDFKNPIIEKYLR [OAS1], in that order: 2.92 ± 0.53 and 2.46 ± 0.7.

Turning to YQSYFKTIEELQQKILCAKAENAR [KRT34], the protein stability index turned out to be 2.46 ± 0.33 under setting [1] and 2.86 ± 0.5 under setting [2].

YQYIQSRFYRSPEVLLGTPYDLAI [DYRK1B]: the protein stability index reads like this: under setting [1], 2.18 ± 0.41; under setting [2], 2.29 ± 0.35.

Regarding YRKQNAYIATQGSLPETFGDFWRM [PTPRD], the protein stability index under setting [1] was found to be 2.54 ± 0.39 and the protein stability index under setting [2] was 2.12 ± 0.08. For YSSEMKTEDELRVRHLEEENRGIV [AUH], in that order: 4.78 ± 1 and 5.35 ± 0.86. For YSYASTHRLMTDARRRVCHTEDFQ [CPXM2], in that order: 2.91 ± 0.37 and 3.44 ± 0.36.

Take YSYMSPNKCSGMRFPLQEENSVTH [KMT5A]: the protein stability index is 3.35 ± 0.25 under setting [1] and 3.14 ± 0.1 under setting [2].
